Substitutions are numbered along the chain they refer to. Like-named read-outs stand apart in the source and are kept apart here. Values belong to the binder of their own block, whether it stands above or below them.
Legend:
[1] = molecular target: T1, Recombinant extracellular domain of human FOLR1 (Novoprotein, Cat#: C784) (human, UniProt P15328 25-233, limits assumed); test: ELISA on immobilized FOLR1 extracellular domain; O.D. 450 nm
T1 construct: Bought reagent; also called recombinant FOLR1; immobilized FOLR1 extracellular domain

[2] = molecular target: T2, FOLR1 on SK-OV-3 cells (ATCC HTB-77) (Homo sapiens (Human), UniProt P15328 25-234); test: FACS on SK-OV-3 cells; MFI
T2 construct: Endogenous FOLR1 of the cell line; also called cells that are known to express FOLR1

[3] = molecular target: T1, Recombinant extracellular domain of …; test: ELISA on immobilized FOLR1 extracellular domain; O.D. 450 nm; remark: listed apart in the source
[4] = molecular target: T2, FOLR1 on SK-OV-3 cells (ATCC HTB-77); test: FACS on SK-OV-3 cells; MFI; remark: listed apart in the source
[5] = molecular target: T1, Recombinant extracellular domain of …; test: ELISA on immobilized FOLR1 extracellular domain; O.D. 450 nm; remark: listed apart in the source
[6] = molecular target: T1, Recombinant extracellular domain of …; test: as above; remark: listed apart in the source
[7] = molecular target: T2, FOLR1 on SK-OV-3 cells (ATCC HTB-77); test: FACS on SK-OV-3 cells; MFI; remark: listed apart in the source
[8] = molecular target: T2, FOLR1 on SK-OV-3 cells (ATCC HTB-77); test: FACS on SK-OV-3 cells; MFI; remark: listed apart in the source
[9] = molecular target: T2, FOLR1 on SK-OV-3 cells (ATCC HTB-77); test: FACS on SK-OV-3 cells; MFI; remark: listed apart in the source
[10] = molecular target: T1, Recombinant extracellular domain of …; test: ELISA on immobilized FOLR1 extracellular domain; O.D. 450 nm; remark: listed apart in the source

T1 sequence (P15328 25-233 limits assumed): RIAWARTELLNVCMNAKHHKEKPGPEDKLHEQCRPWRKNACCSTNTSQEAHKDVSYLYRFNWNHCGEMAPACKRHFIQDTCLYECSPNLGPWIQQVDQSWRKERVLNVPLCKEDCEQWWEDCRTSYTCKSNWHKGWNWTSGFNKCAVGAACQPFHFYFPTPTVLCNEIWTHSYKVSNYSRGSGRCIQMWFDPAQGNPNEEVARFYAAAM
T2 sequence (P15328 25-234 limits assumed): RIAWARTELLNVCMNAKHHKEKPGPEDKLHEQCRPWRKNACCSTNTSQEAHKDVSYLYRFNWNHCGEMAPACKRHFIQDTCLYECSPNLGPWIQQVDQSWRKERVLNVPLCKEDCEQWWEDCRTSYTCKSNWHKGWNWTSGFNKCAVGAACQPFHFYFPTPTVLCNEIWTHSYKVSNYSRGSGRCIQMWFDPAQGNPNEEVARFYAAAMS

EC50 (read off the curve) [6]: ~0.3 nM
EC50 (read off the curve) [7]: ~3 nM
B4: F10-H1L2 (antibody, V domains shown)
VH: EVQLVQSGAEVKKPGSSVKVSCKASGYAFSSSWMNWVRQAPGQGLEWIGRIYPGDGYTHYNGMFKGRASLTADKSTSTGYMELSSLRSEDTAVFFCTRHGDFPYWYFDVWGRGTLVTVSP
VL: DIQMTQSPSTLSASVGDRVTITCRASENIDSYLAWYQQKPGRAPKLLVYAATNLAVGVPSRFSGSGSGTEYTLTISSLQPDDFATYYCQHHYSTPPTFGQGTKLEIK
notes: also called humanized F10 mAb H1L2

EC50 (read off the curve) [8]: ~3 nM
B5: F10-H2L1 (antibody, V domains shown)
VH: B4 VH with P120S
VL: B4 VL with P80S
notes: also called humanized F10 mAb H2L1

Further lines, the binder ahead of its results:

B1: F20-H1L2 (antibody, V domains shown)
VH: QVQLVQSGAEVKKPGSSVKVSCKASGYTFASYYLYWVRQAPGQGLEWIGEINPRSGGTNFNEKFKSRATVTVDKSTSTAYMELSSLRSEDTAVYYCSRSGRLRGFYTMDYWGQGTLVTVSS
VL: DIVMTQSPDSLAVSLGERATINCKAGENVGSYVSWYQQKPGQSPKLLIYGASNRYTGVPDRFSGSGSATDFTLTISSLQAEDVAVYYCGQTYRFLTFGQGTKVEIK
notes: also called humanized F20 mAb H1L2
binding result [1]: binds
binding result [2]: binds

B2: F20-H1L3 (antibody, V domains shown)
VH: B1 VH
VL: DIQMTQSPSTLSASVGDRVTITCKAGENVGSYVSWYQQKPGKAPKLLIYGASNRYTGVPARFSGSGSATEFTLTISSLQPDDFATYYCGQTYRFLTFGQGTKVEVK
notes: also called humanized F20 mAb H1L3
EC50 (read off the curve) [3]: ~0.2 nM

B3: F20-H2L4 (antibody, V domains shown)
VH: B1 VH with K74A
VL: B2 VL with D81E
notes: also called humanized F20 mAb H2L4
EC50 (read off the curve) [4]: ~3 nM
EC50 (read off the curve) [5]: ~0.2 nM

B6: F17-H1L2 (antibody, V domains shown)
VH: EVQLVETGGGLIQPGGSLRLSCAASGFTFSDFGMHWIRQAPGKGLEWVAYMSYTPGTFHYADTVKDRFTISRDNSKNTLYLQMNSLRAEDTAVYYCARVHVGTVDYWGQGTLVTVSS
VL: EVVLTQSPATLSLSPGERATLSCRASQNINNNLHWFQQKPGQAPRLLIKYASQSISGIPARFSGSGSGTDFTLTISSLETEDFAVYFCQQSNSWPALTFGQGTKVEIK
notes: also called humanized F17 mAb H1L2
EC50 (read off the curve) [9]: ~0.9 nM
EC50 (read off the curve) [10]: ~0.2 nM

Reference: patent US20210002363A1 (PHANES THERAPEUTICS, published 2021)
